Reference: patent publication US7202050B2, “Methods for measuring phosphatase activity” (priority 2002, dated 2007)

Target: T1, V8 protease (Staphylococcus aureus, UniProt P0C1U8)
T1 construct: purchased CalBiochem (San Diego, Calif.)
Type: biochemical
Conditions: 30 μM peptide pre-incubated with 40 units CKII 18 hrs at 30° C. in absence of ATP; 1 unit V8 protease, room temperature, in less than three hours; HPLC (FIG. 3)
Protocol: The peptide (30 μM) was incubated at room temperature with V8 protease (0.1 units) in a buffer containing 20 mM Tris-HCl, 50 mM KCl, 10 mM MgCl2, pH 7.5 (CKII buffer) and aliquots were removed at various time points and flash-frozen in a dry-ice/methanol bath. Products of the protease digestion were then separated on the HPLC column using a 0% to 50% acetonitrile/water gradient in the presence of 0.1% TFA. Peptide was detected using both absorbance at 250 nm and by fluorescence of the rhodamine label using 530 nm excitation and 590 nm emission filters.
Subsequently, 1 unit of V8 protease was added to each sample and the samples were incubated at room temperature. Aliquots were removed at various time points and flash-frozen in a dry-ice/methanol bath for HPLC analysis as described above.

T1 sequence (P0C1U8 69-336): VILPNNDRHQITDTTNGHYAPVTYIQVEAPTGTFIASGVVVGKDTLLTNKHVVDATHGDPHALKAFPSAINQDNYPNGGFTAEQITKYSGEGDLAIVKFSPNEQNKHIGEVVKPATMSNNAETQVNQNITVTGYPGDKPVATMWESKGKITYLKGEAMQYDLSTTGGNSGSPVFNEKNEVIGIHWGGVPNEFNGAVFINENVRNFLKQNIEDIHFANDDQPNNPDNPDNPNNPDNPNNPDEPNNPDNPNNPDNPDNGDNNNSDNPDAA

## TMR-Asp-Glu-Ser-Glu-Glu-Glu-Asp-Lys(Nε-Flsn)-COOH (tetramethylrhodamine-DESEEEDK(fluorescein)-OH) [unphosphorylated peptide]
  peptide digested by V8 protease: 80%
